The record followed here is US20250188188A1 (DIANTHUS THERAPEUTICS OPCO, published 2025).

As usually defined, the Kd is the concentration at which binding is half-saturated. Lower therefore signals higher affinity. Broadly, the koff is the first-order rate constant of dissociation. High values mean a short-lived complex, low ones a long-lived complex. Usually kon stands for the rate constant with which the complex forms.

The chains are these.
T1: active human C1s purified from human serum (CompTech, Tyler, TX, catalog number A104) (human, UniProt P09871 16-437; P09871 438-688)
T1 sequence 1: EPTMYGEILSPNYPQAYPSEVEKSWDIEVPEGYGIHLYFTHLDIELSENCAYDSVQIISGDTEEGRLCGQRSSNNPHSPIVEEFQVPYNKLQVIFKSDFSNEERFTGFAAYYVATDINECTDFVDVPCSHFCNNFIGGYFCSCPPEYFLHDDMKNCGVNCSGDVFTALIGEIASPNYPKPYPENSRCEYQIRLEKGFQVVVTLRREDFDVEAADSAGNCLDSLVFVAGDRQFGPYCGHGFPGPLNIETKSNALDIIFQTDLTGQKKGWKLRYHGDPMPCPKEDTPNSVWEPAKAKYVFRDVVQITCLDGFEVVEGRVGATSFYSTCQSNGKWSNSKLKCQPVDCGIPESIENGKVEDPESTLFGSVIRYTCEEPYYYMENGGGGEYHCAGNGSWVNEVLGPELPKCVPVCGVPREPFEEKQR
T1 sequence 2: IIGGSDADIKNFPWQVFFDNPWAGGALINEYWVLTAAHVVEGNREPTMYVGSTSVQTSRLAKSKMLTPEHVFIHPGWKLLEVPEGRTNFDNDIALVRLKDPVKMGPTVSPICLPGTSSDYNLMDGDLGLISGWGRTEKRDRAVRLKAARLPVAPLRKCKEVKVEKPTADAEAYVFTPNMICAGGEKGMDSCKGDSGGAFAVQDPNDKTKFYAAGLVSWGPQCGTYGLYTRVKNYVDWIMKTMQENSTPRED

B1: MAB2 (US20220380483A1) (antibody, V domains shown)
VH: QVQLVESGGGLVKPGGSLRLSCAASGFTFSDYYMSWIRQAPGKGLEWVSYISRSGSTKYYADSVKGRFTISRDNAKNSLYLQMNSLRAEDTAVYYCARDETDYALDYWGQGTLVTVSS
VL: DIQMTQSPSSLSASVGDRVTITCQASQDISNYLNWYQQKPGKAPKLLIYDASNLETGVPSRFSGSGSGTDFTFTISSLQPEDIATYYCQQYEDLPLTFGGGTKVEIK
B2: MAB3 (antibody, V domains shown)
VH: QVQLVESGGGLVKPGGSLRLSCAASGFTFSDYYMSWIRQAPGKGLEWVSYISRSGSTKYYADSVKGRFTISRDNAKNSLYLQMNSLRAEDTAVYYCARDETDYAFDEWGQGTLVTVSS
VL: DIQMTQSPSSLSASVGDRVTITCQASQDISNYLNWYQQKPGKAPKLLIYDASNLETGVPSRFSGSGSGTDFTFTISSLQPEDIATYYCKQYEDYPLTFGGGTKVEIK
notes: IgG
B3: MAB2 (antibody, V domains shown)
VH: QVQLVESGGGLVKPGGSLRLSCAASGFTFSDYYMSWIRQAPGKGLEWVSYISRSGSTKYYADSVKGRFTISRDNAKNSLYLQMNSLRAEDTAVYYCARDETDYGWDYWGQGTLVTVSS
VL: DIQMTQSPSSLSASVGDRVTITCQASQDISNYLNWYQQKPGKAPKLLIYDASNLETGVPSRFSGSGSGTDFTFTISSLQPEDIATYYCKQYEDYPLTFGGGTKVEIK
notes: IgG
B4: MAB7 (antibody, V domains shown)
VH: QVQLVESGGGLVKPGGSLRLSCAASGFTFSDYYMSWIRQAPGKGLEWVSYISRSGSTKYYADSVKGRFTISRDNAKNSLYLQMNSLRAEDTAVYYCARDETDYAYDNWGQGTLVTVSS
VL: DIQMTQSPSSLSASVGDRVTITCQASQDISNYLNWYQQKPGKAPKLLIYDASNLETGVPSRFSGSGSGTDFTFTISSLQPEDIATYYCQQYEDYPLVFGGGTKVEIK
notes: IgG
B5: MAB1 (antibody, V domains shown)
VH: QVQLVESGGGLVKPGGSLRLSCAASGFTFSDYYMSWIRQAPGKGLEWVSYISRSGSTKYYADSVKGRFTISRDNAKNSLYLQMNSLRAEDTAVYYCARDQEDYALDYWGQGTLVTVSS
VL: DIQMTQSPSSLSASVGDRVTITCQASQDISNYLNWYQQKPGKAPKLLIYDASNLETGVPSRFSGSGSGTDFTFTISSLQPEDIATYYCEQYEDYPLTFGGGTKVEIK
notes: 191g-derived clone expressed as IgG in 293 cells
B6: MAB4 (antibody, V domains shown)
VH: QVQLVESGGGLVKPGGSLRLSCAASGFTFSDYYMSWIRQAPGKGLEWVSYISRSGSTKYYADSVKGRFTISRDNAKNSLYLQMNSLRAEDTAVYYCARDESQYALDYWGQGTLVTVSS
VL: DIQMTQSPSSLSASVGDRVTITCQASQDISNYLNWYQQKPGKAPKLLIYDASNLETGVPSRFSGSGSGTDFTFTISSLQPEDIATYYCHQYEDYPLTFGGGTKVEIK
notes: The IgG4 YTE form is entered separately as IgG4-MAB4
B7: MAB22 (antibody, V domains shown)
VH: EVQLVESGGGVVRPGGSLRLSCAASGFTFDDYGMSWVRQAPGKGLEWVSGINWEGGSTGYADSVKGRFTISRDNAKNSLYLQMNSLRAEDTALYYCARDEQLGGKYYYYYYMDVWGKGTTVTVSS
VL: DIQMTQSPSSLSASVGDRVTITCRASQGIRNDLGWYQQKPGKAPKRLIYTASNLQSGVPSRFSGSGSGTEFTLTISSLQPEDFATYYCLQYRSHPLTFGGGTKVEIK
notes: IgG
B8: MAB30 (antibody, V domains shown)
VH: EVQLVESGGGVVRPGGSLRLSCAASGFTFDDYGMSWVRQAPGKGLEWVSGINWEGGSTGYADSVKGRFTISRDNAKNSLYLQMNSLRAEDTALYYCARDEQLGGRHYYYYYMDVWGKGTTVTVSS
VL: DIQMTQSPSSLSASVGDRVTITCRASQGIRNDLGWYQQKPGKAPKRLIYTASNLQSGVPSRFSGSGSGTEFTLTISSLQPEDFATYYCLQYNAYPLIFGGGTKVEIK
notes: IgG
B9: MAB25 (antibody, V domains shown)
VH: EVQLVESGGGVVRPGGSLRLSCAASGFTFDDYGMSWVRQAPGKGLEWVSGINWEGGSTGYADSVKGRFTISRDNAKNSLYLQMNSLRAEDTALYYCARDEQLGGIKYYYYYMDVWGKGTTVTVSS
VL: DIQMTQSPSSLSASVGDRVTITCRASQGIRNDLGWYQQKPGKAPKRLIYTASNLQSGVPSRFSGSGSGTEFTLTISSLQPEDFATYYCLQYKQYPLTFGGGTKVEIK
notes: IgG
B10: MAB24 (antibody, V domains shown)
VH: EVQLVESGGGVVRPGGSLRLSCAASGFTFDDYGMSWVRQAPGKGLEWVSGINWEGGSTGYADSVKGRFTISRDNAKNSLYLQMNSLRAEDTALYYCARDEQLGGTTYYYYYMDVWGKGTTVTVSS
VL: DIQMTQSPSSLSASVGDRVTITCRASQGIRNDLGWYQQKPGKAPKRLIYTASNLQSGVPSRFSGSGSGTEFTLTISSLQPEDFATYYCLQTNIYPLTFGGGTKVEIK
notes: IgG
B11: MAB28 (antibody, V domains shown)
VH: EVQLVESGGGVVRPGGSLRLSCAASGFTFDDYGMSWVRQAPGKGLEWVSGINWEGGSTGYADSVKGRFSISRDNAKNSLYLQMNSLRAEDTALYYCARDEQLGGLKYYYYYMDVWGKGTTVTVSS
VL: DIQMTQSPSSLSASVGDRVTITCRASQGIRNDLGWYQQKPGKAPKRLIYTASNLQSGVPSRFSGSGSGTEFTLTISSLQPEDFATYYCLQYHSYPLRFGGGTKVEIK
notes: IgG
B12: MAB26 (antibody, V domains shown)
VH: EVQLVESGGGVVRPGGSLRLSCAASGFTFDDYGMSWVRQAPGKGLEWVSGINWEGGSTGYADSVKGRFSISRDNAKNSLYLQMNSLRAEDTALYYCARDEQLGGLKYYYYYMDVWGKGTTVTVSS
VL: DIQMTQSPSSLSASVGDRVTITCRASQGIRNDLGWYQQKPGKAPKRLIYTASNLQSGVPSRFSGSGSGTEFTLTISSLQPEDFATYYCLQTNIYPLTFGGGTKVEIK
notes: IgG
B13: MAB9 (antibody, V domains shown)
VH: QVQLVESGGGLVKPGGSLRLSCAASGFTFSDYYMSWIRQAPGKGLEWVSYISRSGSTKYYADSVKGRFTISRDNAKNSLYLQMNSLRAEDTAVYYCARDENYALDWWGQGTLVTVSS
VL: DIQMTQSPSSLSASVGDRVTITCQASQDISNYLNWYQQKPGKAPKLLIYDASNLETGVPSRFSGSGSGTDFTFTISSLQPEDIATYYCQHYEDYPLTFGGGTKVEIK
notes: The IgG4 YTE form is entered separately as IgG4-MAB9
B14: MAB15 (antibody, V domains shown)
VH: QVQLVQSGAEVKKPGASVKVSCKVSGDTLTELSMHWVRQAPGKGLEWMGTFDPEEGETIYAQKFQGRVTMTEDTSTDTAYMELSSLRSEDTAVYYCVTKGLAWLPYYSWGQGTLVTVSS
VL: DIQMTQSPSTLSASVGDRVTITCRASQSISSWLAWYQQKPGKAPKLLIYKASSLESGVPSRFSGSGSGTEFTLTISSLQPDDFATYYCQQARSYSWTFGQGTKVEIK
notes: IgG

One assay has as its target T1, active human C1s purified from human …. Kind of assay: cell-based or functional assay.
Turning to B1, the “IC50 in the RBC lysis assay (FIG. 4C)” value was 61.2 nM.

Another assay shares this target. Kind of assay: SPR, antibody captured via anti-human Fc, C1s in solution. For orientation: SPR reads the build-up and loss of mass on a sensor chip optically.
Consider B2, for which the affinity, expressed as Kd, was 0.932 nM; the koff came to 0.000209 s⁻¹; the kon came to 224000 M⁻¹ s⁻¹.
The like results for B3 were, in that order, 1.83 nM, 0.000215 s⁻¹ and 118000 M⁻¹ s⁻¹.
The like results for B4 were, in that order, 1.22 nM, 0.000223 s⁻¹ and 184000 M⁻¹ s⁻¹.
The matching figures for B5: 0.95 nM, 0.000255 s⁻¹ and 268000 M⁻¹ s⁻¹.
In turn, B6 showed an equilibrium dissociation constant (Kd) of 1.22 nM, a koff of 0.000232 s⁻¹ and a kon of 190000 M⁻¹ s⁻¹.
In turn, B7 gave a dissociation constant (Kd) of 4.17 nM, an off-rate (koff) of 0.000335 s⁻¹ and a kon of 80400 M⁻¹ s⁻¹.
The matching figures for B8: 6.01 nM, 0.000688 s⁻¹ and 115000 M⁻¹ s⁻¹.
The like results for B9 were, in that order, 5.57 nM, 0.000621 s⁻¹ and 111000 M⁻¹ s⁻¹.
B10 gave a Kd of 3.49 nM, a koff of 0.000328 s⁻¹ and a kon of 93900 M⁻¹ s⁻¹.
The like results for B11 were, in that order, 2.89 nM, 0.000409 s⁻¹ and 141000 M⁻¹ s⁻¹.
The matching figures for B12: 6.52 nM, 0.00055 s⁻¹ and 84500 M⁻¹ s⁻¹.
B13: binding was put at a Kd of 0.306 nM, the koff was 0.000127 s⁻¹ and the kon was determined as 414000 M⁻¹ s⁻¹.
The matching figures for B14: 6.39 nM, 0.000737 s⁻¹ and 115000 M⁻¹ s⁻¹.
